The values that follow come from patent US20240294650A1 (Alector, published 2024).

Experiment [1] deals with T1, Recombinant human MerTK-human Fc Chimera protein (human, UniProt Q12866 26-499, limits assumed).
T1 construct: bought construct; also called MerTK-Fc (R&D systems, Cat #391-MR-100)
T1 sequence: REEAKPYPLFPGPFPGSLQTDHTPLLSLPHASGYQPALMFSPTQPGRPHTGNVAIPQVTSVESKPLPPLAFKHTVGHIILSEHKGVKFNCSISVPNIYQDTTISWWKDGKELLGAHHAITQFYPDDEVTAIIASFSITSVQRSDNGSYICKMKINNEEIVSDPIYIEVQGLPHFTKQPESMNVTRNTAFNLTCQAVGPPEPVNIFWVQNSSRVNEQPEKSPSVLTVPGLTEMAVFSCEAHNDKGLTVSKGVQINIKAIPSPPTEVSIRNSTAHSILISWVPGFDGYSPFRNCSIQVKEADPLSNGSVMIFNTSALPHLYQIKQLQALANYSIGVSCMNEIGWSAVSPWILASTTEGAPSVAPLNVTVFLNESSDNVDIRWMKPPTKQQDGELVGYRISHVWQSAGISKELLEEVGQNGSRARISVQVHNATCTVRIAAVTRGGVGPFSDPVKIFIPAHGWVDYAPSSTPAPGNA
Kind of experiment: blocking ELISA, ProS-His on MerTK-Fc, Ab 66.6 nM, isotype=100%. How it is done: (§1) Briefly, rabbit anti-human IgG antibody (Jackson ImmunoResearch, Cat #309-005-008) was coated at 2 μg/ml onto high-protein binding plates at 4° C. overnight. After washing with 0.05% Tween20 in PBS three times, 5% BSA in PBS was added for 1 hour. Recombinant human MerTK-human Fe Chimera protein (R&D systems, Cat #391-MR-100) was added at 2 μg/ml for 1 hour and plates were washed before the addition of 40 μl of anti-MerTK hybridoma supernatants and 40 μl of His tag-conjugated recombinant Gas6 (R&D systems, Cat #885-GSB-050) at 3 μg/ml or His tag-conjugated recombinant ProS (R&D systems, Cat #9489-PS-100) at 20 μg/ml. After a further incubation for 1 hour, plates were washed and incubated for 1 hour with HRP-conjugated anti-6×His tagged antibody (Abcam, Cambridge, MA, Cat #ab1187). Plates were then washed and an HRP substrate, TMB, was added to develop the plates. The reaction was stopped by adding 50 μl 2N H₂SO₄ and the OD was measured using a spectrophotometer (BioTek).
(§2) Anti-MerTK antibodies were titrated to a final concentration from 66.6 nM to 4 pM and tested against anti-human MerTK antibody M6 (disclosed in WO2016/106221) or isotype control antibody.

Experiment [2] concerns the target T1, Recombinant human MerTK-human Fc …. Kind of experiment: blocking ELISA, Gas6-His on MerTK-Fc, Ab 66.6 nM, isotype=100%. How it is done: as §1, §2
In general terms: ELISA stands for enzyme-linked immunosorbent assay.

Experiment [3] concerns the target T2, human MerTK (human, UniProt Q12866 21-999).
T2 construct: endogenous receptor on cells; also called human MerTK endogenously expressed on SK-MEL-5 cells; MerTK on human macrophages
T2 sequence: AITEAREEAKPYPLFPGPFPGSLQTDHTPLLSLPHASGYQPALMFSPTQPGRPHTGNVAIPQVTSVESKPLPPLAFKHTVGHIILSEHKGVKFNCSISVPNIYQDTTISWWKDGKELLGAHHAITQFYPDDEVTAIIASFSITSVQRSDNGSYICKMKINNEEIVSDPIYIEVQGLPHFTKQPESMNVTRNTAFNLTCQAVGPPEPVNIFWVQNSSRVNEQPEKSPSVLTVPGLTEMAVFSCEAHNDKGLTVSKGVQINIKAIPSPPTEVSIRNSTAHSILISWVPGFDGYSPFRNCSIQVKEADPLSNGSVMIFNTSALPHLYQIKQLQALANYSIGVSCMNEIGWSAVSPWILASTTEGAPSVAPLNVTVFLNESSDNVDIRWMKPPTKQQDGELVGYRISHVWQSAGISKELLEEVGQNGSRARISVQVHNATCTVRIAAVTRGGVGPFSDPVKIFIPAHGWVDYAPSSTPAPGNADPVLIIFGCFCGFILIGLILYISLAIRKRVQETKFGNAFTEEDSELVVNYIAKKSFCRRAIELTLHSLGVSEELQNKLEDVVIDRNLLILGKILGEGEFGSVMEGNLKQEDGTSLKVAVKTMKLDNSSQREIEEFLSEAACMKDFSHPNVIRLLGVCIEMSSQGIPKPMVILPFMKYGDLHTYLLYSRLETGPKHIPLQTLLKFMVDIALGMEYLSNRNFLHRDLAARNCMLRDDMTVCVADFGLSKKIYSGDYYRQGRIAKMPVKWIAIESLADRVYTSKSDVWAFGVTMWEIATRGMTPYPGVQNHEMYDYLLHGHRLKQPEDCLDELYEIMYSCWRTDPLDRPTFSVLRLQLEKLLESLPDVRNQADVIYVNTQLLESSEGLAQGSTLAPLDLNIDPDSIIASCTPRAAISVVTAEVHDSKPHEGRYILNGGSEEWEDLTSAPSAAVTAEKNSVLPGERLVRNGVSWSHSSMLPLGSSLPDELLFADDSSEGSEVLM
Kind of experiment: FACS, SK-MEL-5 cells, 10 ug/ml. How it is done: To determine whether recombinant anti-human MerTK antibodies of the present disclosure bind to human MerTK endogenously expressed on SK-MEL-5 cells and CHO cells overexpressing mouse MerTK (CHO-muMerTK OE cells), as compared to A375 and parental CHO cells as negative controls, the following experiments were performed. SK-MEL-5 cells, A375 cells, CHO-muMerTK OE cells, and CHO parental cells were plated at 100,000 cells/well. Anti-MerTK antibodies were added to the cells at 10 μg/ml. After 60 minutes on ice, cells were washed and then stained with PE-conjugated goat anti-human IgG antibody (Southern Biotech Cat #2040-09, Birmingham, AL) in the presence of Fc block solution on ice for 30 minutes, and then washed twice with cold FACS buffer (2% FBS in PBS). Mouse anti-human MerTK-PE conjugated (Biolegend, Clone 590H11G1E3) or anti-mouse MerTK-PE conjugated (ThermoFisher, Clone DS5MMER) antibodies were used as positive controls. Stained cells were acquired on a BD FACS Canto II cytometer and the mean fluorescence intensity (MFI) was calculated with FlowJo.
Background: Flow cytometry measures light scatter and fluorescence of single cells or particles in a stream.

B1: MTK-223 (antibody, human IgG1, V domains shown)
VH: DVQLQESGPGLVKPSQSLSLTCSVTGYSITSGYYWNWIRQFPGNKLEWMGYISYDGTNNYNPSLKNRISITRDTSENQFFLKLNSVTTEDTATYFCVRGAGYWGQGTTLTVSS
VL: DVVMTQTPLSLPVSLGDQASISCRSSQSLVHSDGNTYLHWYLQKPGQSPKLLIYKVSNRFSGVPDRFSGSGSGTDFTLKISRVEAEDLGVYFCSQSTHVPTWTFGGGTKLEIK
B1: the “Percent ProS ligand binding” value in experiment [1] came out at 37.4%. In addition, the “Percent Gas6 ligand binding” value in experiment [2] amounted to 107%. The same molecule registered an MFI in experiment [3] of 26800 MFI.

B2: MTK-213 (antibody, human IgG1, V domains shown)
VH: QVQLQQPGAELVKPGASVKMSCKASGYTFTSYWITWVKQRPGQGHEWIGEIYPGIGSTNYNEKFKSKATLTVDTSSRTAYMQLSSLTSEDSAVYFCARGAYTKYYFDYWGQGTTLTVSS
VL: DIVMTQSHKFMSTSVGDRVSITCKASQDVGDAVAWYQQKPGQTPKLLIYWASTRHTGVPDRFTGSGSGTDFTLTISNVQSEDLADYFCQQYSSYLMYTFGGGTKLEIK
As to B2, the “Percent ProS ligand binding” value in experiment [1] came to 43.2%. Moreover, the “Percent Gas6 ligand binding” value in experiment [2] came out at 102%. For the same molecule, in experiment [3], the MFI stood at 40300 MFI.

B3: MTK-211 (antibody, human IgG1, V domains shown)
VH: QVQLQQSGAELMKPGASVKLSCKATGYTFTGYWIEWVKQRPGHGLEWIGEILPGSGGSNYNEKFKGKATFTADTSSNTAYIQLSSLTTEDSAIYCCARGEPSYFSDAGFAYWGQGTLVTVSA
VL: QIVLTQSPAVMSASPGEKVTMTCSASSSITYMHWYQQKPGTSPKRWIYDTSKLASGVPARFSGSGSGTSYFLTISSMEAEDVATYYCHQRSTYPYTFGGGTKLEIM
B3: the “Percent ProS ligand binding” value in experiment [1] worked out at 106%. Further, the “Percent Gas6 ligand binding” value in experiment [2] was determined as 115%. This molecule returned an MFI in experiment [3] of 30500 MFI.

B4: MTK-228 (antibody, human IgG1, V domains shown)
VH: QDQLQQSGPELVKPGASVKISCKASGYSFTSYYIHWVKQRPGQGLEWVGWIFPGNGNTKYNERFKGKATLTADTSSSTAYMQLSSLTSEDSAVYYCARLGLIYALDYWGQGTSVTVSS
VL: DAVMTQTPLSLPVSLGDQASISCRSSQSLENSNGNTYLHWYLQKPGQSPQLLIYRVSNRFSGVLDRFSGSGSGTDFTLKISRVEAEDLGVYFCLQVTHVPFTFGSGTKLEIK
For the molecule B4, the “Percent ProS ligand binding” value in experiment [1] was determined as 216%. For the same molecule, the “Percent Gas6 ligand binding” value in experiment [2] amounted to 110%. This molecule displayed an MFI in experiment [3] of 60200 MFI.

B5: MTK-226 (antibody, human IgG1, V domains shown)
VH: QVQLQQSGPELVKPGASVKISCKASGYSFTSYYIHWVKQRPGQGLEWIGWIFPGNGNTKYNENFRGKATLTADTSSSTAYMQLSSLTSEDSAVYYCARLGLIYALDYWGQGTSVTVSS
VL: DAVMTQTPLSLPVSLGDQASISCRSSQSLESSNGNTYLHWYLQKPGQSPQLLIYRVSNRFSGVLDRFSGSGSGTDFTLQISRVEAEDLGVYFCLQVTHVPFTFGSGTKLEIK
As for B5, the “Percent ProS ligand binding” value in experiment [1] was determined as 175%. The “Percent Gas6 ligand binding” value in experiment [2] was determined as 109%. Besides, the MFI in experiment [3] was 49100 MFI.

B6: MTK-218 (antibody, human IgG1, V domains shown)
VH: QVQLQQSGPELVKPGTSVKISCKASGYSFTSYYIHWVKQRPGQGLDWIGWIFPGNRNTQYNEKFKGKATLTADTSSSTAYMQLSSLTSEDSAVYYCARLGLIYALDYWGQGTSVTVSS
VL: DAVMTQTPLSLPVSLGDQASISCRSSQSLENSNGHTYLHWYLQKPGQSPQLLIYRVSNRFSGVQDRFSGSGSGTDFTLKISRVEAEDLGVYFCLQVTHVPFTFGSGTKLEIK
As to B6, the “Percent ProS ligand binding” value in experiment [1] was 179%. The “Percent Gas6 ligand binding” value in experiment [2] amounted to 112%. The MFI in experiment [3] amounted to 49000 MFI.

B7: MTK-201 (antibody, human IgG1, V domains shown)
VH: QVQLRQSGPGLVQPSQSLSITCTVSGFSLSNYGLHWVRQSPGKGLEWLGVIWSGGITDYNAAFISRLSIIKDNSRSQVFFKMNSLQADDTAIYYCARKGHDPYAMDFWGQGTSVTVSS
VL: QIVLTQSPPIMSAFLGERVTMTCTASSSVSSSYLHWYRQMPGSSPKLWIYDTSNLASGVPARFSGSGSGTSYSLTISSMEAEDAATYYCHQYHHSPYTFGGGTKLEIK
Consider B7, for which the “Percent ProS ligand binding” value in experiment [1] was determined as 94.3%. In experiment [2], the “Percent Gas6 ligand binding” value was determined as 112%. In experiment [3], the MFI turned out to be 40300 MFI.

B8: MTK-220 (antibody, V domains shown)
VH: EVQLVESGGGLVKPGGSLKLSCAASGFTFSDYGMHWVRQAPEKGLEWVAFISGGSGTIYYEDTVKGRFTISRDNAKNTLFLQMTSLRSEDTAMYYCTRGGNYFDYWGQGTTLTVSS
VL: NIMLTQSPSSLAVSAGEKVTMTCKSSQSVLYSSNQKNYLAWYQQKPGQSPKLLIYWASTRESGVPDRFTGSGSGTDFTLTISNVQAEDLAVYYCHQYFSSWTFGGGTKLEIK
Consider B8, for which, in experiment [1], the “Percent ProS ligand binding” value was 63.4%. Moreover, the “Percent Gas6 ligand binding” value in experiment [2] came out at 97%. This molecule had an MFI in experiment [3] of 29000 MFI.

B9: MTK-227 (antibody, human IgG1, V domains shown)
VH: EVKLVESGGGLVQPGGSLSLSCAASGFTFTDNYMTWVRQPPGKALEWLGFSRNKANGYTTEYSASVKGRFTISRDSSQSILYLQMNALRAEDSGTYYCARFPPHYYAGGYFDVWGTGTTVTVSS
VL: DIQMTQSPASLSASVGETVTITCRASENIYSYLAWYQQKQGKSPQLLVYNAKTLAEGVPSRFSGSGSGTQFSLKINSLQPADFGSYYCQHYYRTPPTFGGGTKLEIK
On to B9, for which the “Percent ProS ligand binding” value in experiment [1] is 84.5%. In addition, the “Percent Gas6 ligand binding” value in experiment [2] turned out to be 99.9%. In experiment [3], this molecule yielded an MFI of 40900 MFI.

B10: MTK-229 (antibody, human IgG1, V domains shown)
VH: QVQLQQSGPELVKPGASVKISCKASGYEFSRSWMNWVKQRPGKGLEWIGRIYPGDGDTNYKGKLKGQATLTADKSSSTAYMQLSSLTFEDSAVYFCARGGGYYYDSRYEGFVYWGQGTVVTVSA
VL: QIVLTQSPAIMSASPGEEVTMTCSASSSVSYMHWYQQKSGTSPKRWIYDTSKLASGVSGRFSGSGSGTSYSLTISSMEAEDAATYYCQQWSSNPPITFGAGTKLELK
As to B10, the “Percent ProS ligand binding” value in experiment [1] came to 117%. For the same molecule, the “Percent Gas6 ligand binding” value in experiment [2] came to 98.9%. In addition, in experiment [3], the MFI was 32200 MFI.
